The values that follow come from patent US20250092124A1 (YUNNAN BAIYAO GROUP, published 2025).

As a reminder, the EC50 is the concentration needed to bring the measured effect to its halfway point. A higher EC50 goes with lower potency in that assay. The IC50 is the concentration that inhibits the measured activity by half.

Experiment [1] has as its target T1, GDF15-HIS (ACROBiosystems, CAT #: GD5-H5149) (human, UniProt Q99988 197-308).
T1 construct: Bought protein; also called GDF15 (ACROBiosystems, GD5-H5149); human GDF15; not shown: His tag
T1 sequence (looked up): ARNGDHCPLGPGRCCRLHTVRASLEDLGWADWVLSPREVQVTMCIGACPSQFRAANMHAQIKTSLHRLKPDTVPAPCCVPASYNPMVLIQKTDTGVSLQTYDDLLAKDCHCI
Kind of experiment: ELISA in stability test, antibody after 5 freeze-thaw cycles; coated antigen not named. How it is done:
An appropriate amount of each antibody was taken and adjusted to 10 mg/mL, followed by freezing at −80° C. for 10 min, and placing in an ice-water mixture to slowly thaw. The above procedure was repeated 5 times. Protein aggregation was detected using SEC-HPLC, and protein binding activity change was detected by ELISA.
(An ELISA detects its analyte on a solid surface through an enzyme-linked reagent.)

Experiment [2] addresses T1, GDF15-HIS (ACROBiosystems, CAT #: …). The experiment is described as follows: cell-based or functional assay.
The target of a further experiment is T2, GDF3 (R&D, 5754-G3-010) (UniProt Q9NR23 251-364).
T2 sequence (looked up): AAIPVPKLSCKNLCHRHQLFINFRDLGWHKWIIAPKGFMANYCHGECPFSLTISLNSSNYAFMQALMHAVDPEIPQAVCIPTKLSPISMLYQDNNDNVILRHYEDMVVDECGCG
Kind of experiment: ELISA, GDF3 coated at 1 µg/ml, HRP-anti-human IgG. The method, then: (§1) GDF15 (ACROBiosystems, GDS-HS149), GDF1 (R&D, 6937-GD-010), and GDF3 (R&D, 5754-G3-010) proteins were dissolved in PBS at a concentration of 1 μg/ml and were used to coat ELISA 96-well plate. On the next day, the 96-well plate was blocked with 2% BSA in PBS for 1 hour. After removing the blocking solution, GDF15 antibody 53E5 (hz), control antibody Ponsegromab and irrelevant hIgG1 were added at 4 μg/ml. After incubation at room temperature for 1 hour, the plate was washed, and then HRP-anti-human IgG was added. After incubation at room temperature for 1 hour, the HRP enzyme activity signal (OD450) was detected. The OD450 value is the relative signal of the antibody binding amount.

In the next experiment the target is T3, GDF15-mFC protein (human; mouse, UniProt Q99988 197-308).
T3 construct: extracellular domain;domain: IgG2a-FC; also called GDF15-mFc fusion protein
T3 sequence (looked up): T1 sequence (looked up)
Kind of experiment: competitive ELISA, GFRAL-HIS coated (competitor), GDF15-mFc 0.3 µg/ml pre-incubated with antibody. How it is done:
GFRAL-HIS protein (ACROBiosystems, GFA-H52H3) was dissolved in PBS at a concentration of […] and was used to coat ELISA 96-well plate one day before blocking the plate with 2% BSA in PBS. 53E5 (hz), and control antibodies Ponsegromab and AV380-hIgG1 were 3.16-fold diluted for 10 gradients with a starting concentration of 20 μg/ml. At the same time, GDF15-mFc protein was added at a final concentration of 0.3 μg/ml. After incubation at room temperature for 1 hour, the mixtures were added to 96-well plate coated with GFRAL-HIS. After incubated at room temperature for 1 hour, the plate was washed and then HRP-anti-mouse IgG was added to the plate. After incubation at room temperature for 1 hour, the HRP enzyme activity (OD450) was detected. The HRP enzyme activity represents the relative amount of GDF15-mFc protein bound to GFRAL. The OD450 values and antibody concentrations were plotted. The dose-effect curve was fitted using the log (agonist) vs. response-variable slope (four-parameter) Logistic model to calculate IC50.

Experiment [3] concerns the target T1, GDF15-HIS (ACROBiosystems, CAT #: …). The experiment is described as follows: ELISA in stability test, antibody after 40 °C for 2 weeks; coated antigen not named. The method, then:
(§2) An appropriate amount of each antibody was taken and adjusted to 10 mg/mL, and was placed at 40° C. for 1 and 2 weeks. Protein aggregation was detected using SEC-HPLC, and protein binding activity change was detected by ELISA.

For experiment [4] the target is unchanged. Kind of experiment: ELISA on human GDF15, antibody after 2 weeks at 37 °C in PBS; PBS, 37 C for 2 weeks (not plasma). How it is done:
(§3) […] of the antibodies to be tested (final concentration 1 mg/ml) were added to 200 μl of plasma and PBS, respectively, tightly sealed and placed at 37° C. for 2 weeks. The change of protein binding activity was detected by ELISA.

Experiment [5] shares this target. Kind of experiment: ELISA, GDF15-HIS coated. How it is done: The experiment was performed as detailed in Example 2, except that the coating protein was GDF15-HIS (ACROBiosystems, CAT #: GD5-H5149), and the antibodies to be tested (the humanized antibodies), negative control antibody (hIgG1), positive control antibodies Ponsegromab (Pfizer; Drug Bank: D11909) and AV380-hlgG1 (the heavy chain and light chain constant regions of AV380-mIgG1 were replaced with the constant regions of human IgG, i.e., SEQ ID NO. 5 and SEQ ID NO. 6) were added to each well of the coated plate.

Another experiment addresses T4, GDF1 (R&D, 6937-GD-010) (UniProt P27539 254-372).
T4 sequence (looked up): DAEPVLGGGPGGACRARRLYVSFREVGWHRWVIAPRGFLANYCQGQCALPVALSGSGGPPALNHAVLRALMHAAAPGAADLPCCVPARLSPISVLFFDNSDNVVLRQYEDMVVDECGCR
The experiment is described as follows: ELISA, GDF1 coated at 1 µg/ml, HRP-anti-human IgG. How it is done:
as §1

Experiment [6] deals with T1, GDF15-HIS (ACROBiosystems, CAT #: …). The experiment is described as follows: ELISA on human GDF15, antibody after 2 weeks at 37 °C in plasma. The method, then:
as §3

The target is the same in experiment [7]. The experiment is described as follows: ELISA in stability test, antibody after 40 °C for 1 week; coated antigen not named. The method, then: as §2

B1: 53E5(hz) (antibody, human IgG1, kappa, V domains shown)
VH: QVQLQESGPGLVKPSETLSLTCTFSGFSLSTSGMGVGWIRQPPGKGLEWLAHILWDDVKRYNPALKSRLTISKDSSKSQISLKLSSVTAADTAVYYCVQMAWDWFAYWGQGTTVTVSS
VL: DIQMTQSPSSLSASVGDRVTITCKASQNVDTNVAWYQQKPGQSPKALIYSASYRSSGVPSRFSGSGSGTDFTLTISSLQPEDFATYYCQQYHSYPTFGQGTRLEIKR
notes: also called S3E5 (hz); humanized antibody 53E5
For B1, the EC50 in experiment [1] was 0.0648 µg/mL; in experiment [3], 0.0573 µg/mL; in experiment [4], 0.127 µg/mL; in experiment [5] it was 0.0833 µg/mL; in experiment [6] it was 0.0372 µg/mL; in experiment [7], 0.0641 µg/mL. Moreover, in experiment [2], the “EC50 (read off the curve) of GDF15-His for luciferase induction with 0.1 µg/ml antibody present” value was about 0.02 µg/mL. Also, the binding result is listed as “no binding (tested: 4 µg/ml)” with GDF3 (R&D, 5754-G3-010) and “no binding (tested: 4 µg/ml)” with GDF1 (R&D, 6937-GD-010). The molecule further came in with a concentration for half-maximal inhibition (IC50) in the experiment with GDF15-mFC protein of 0.253 µg/mL. Moreover, the OD450.Max in experiment [5] stood at 1.05 OD450.
